Biological target: CD16 (FcγRIIIa/CD16a), high affinity variant with valine at amino acid 176, expressed on haNK003 cells (human) (UniProt P08637)
Experiment: cell-based or functional assay

Sequence of UniProt P08637 (P08637 other isoform, or with tags, fused parts or gaps mutant limits assumed): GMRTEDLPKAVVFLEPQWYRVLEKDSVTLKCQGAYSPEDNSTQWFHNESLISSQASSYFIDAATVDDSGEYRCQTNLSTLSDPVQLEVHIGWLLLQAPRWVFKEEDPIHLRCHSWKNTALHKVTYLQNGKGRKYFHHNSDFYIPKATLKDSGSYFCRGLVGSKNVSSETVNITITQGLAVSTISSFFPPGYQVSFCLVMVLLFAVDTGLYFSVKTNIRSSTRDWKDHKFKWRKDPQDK

- ADCC assay (specific lysis), haNK003 at 1:1 E:T Ratio with Rituxan (3.3 µg/mL) vs DOHH2: 52.8%
Substance: Rituximab (antibody)

Source: US20260078342A1
